Test results as given in JP2018127443A.

Biological target: T1, 変性rFXIII-A (human) (UniProt P00488)
T1 sequence: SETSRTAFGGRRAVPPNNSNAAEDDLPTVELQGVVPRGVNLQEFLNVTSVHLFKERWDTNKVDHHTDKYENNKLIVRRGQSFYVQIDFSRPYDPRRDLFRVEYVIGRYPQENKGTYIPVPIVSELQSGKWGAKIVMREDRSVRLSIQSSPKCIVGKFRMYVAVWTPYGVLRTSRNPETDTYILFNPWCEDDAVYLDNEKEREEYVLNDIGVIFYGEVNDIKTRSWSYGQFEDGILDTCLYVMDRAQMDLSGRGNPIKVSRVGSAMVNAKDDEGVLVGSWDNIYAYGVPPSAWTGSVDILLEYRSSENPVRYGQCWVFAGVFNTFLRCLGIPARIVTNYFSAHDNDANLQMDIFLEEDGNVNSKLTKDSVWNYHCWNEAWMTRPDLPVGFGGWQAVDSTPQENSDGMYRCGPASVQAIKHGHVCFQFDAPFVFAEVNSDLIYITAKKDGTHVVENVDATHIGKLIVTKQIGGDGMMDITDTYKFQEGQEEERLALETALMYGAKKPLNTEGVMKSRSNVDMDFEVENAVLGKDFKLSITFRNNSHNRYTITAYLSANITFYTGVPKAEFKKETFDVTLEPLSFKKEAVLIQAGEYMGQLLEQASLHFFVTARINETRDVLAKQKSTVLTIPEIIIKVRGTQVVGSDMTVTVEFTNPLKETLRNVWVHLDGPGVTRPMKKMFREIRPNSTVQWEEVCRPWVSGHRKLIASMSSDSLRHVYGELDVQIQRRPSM
Assay: solid-phase ELISA: denatured vs native rFXIII-A coated

- fold change of binding, denatured against native rFXIII-A: 2 fold
B1: ヒト抗FXIII-Aモノクローナル抗体 A75K (antibody, V domains shown)
VH: QVQLVESGGGVVQPGRSLSLSCAASGFNFISYGMHWVRQSPGKGLEWVAVISYDGSKKYYADFVKGRFTISRDNSKNTLFLQMNSLRGDDTAVFYCAKDRGFYGSGSSDYYYVMDVWGQGTTVTVSS
VL: DIQMTQSPSSLSASVGDRVTITCRASQGITNYLAWFQHKPGKAPKSLIYAASTLHRGVSSKFSGSGSGTDFTLTISNLQPEDFATYYCQQYKTYPITFGQGTRLDIK
